Sequences and labels used below:
T1: human TGFβ3 (human, UniProt P10600 301-412)
T1 sequence: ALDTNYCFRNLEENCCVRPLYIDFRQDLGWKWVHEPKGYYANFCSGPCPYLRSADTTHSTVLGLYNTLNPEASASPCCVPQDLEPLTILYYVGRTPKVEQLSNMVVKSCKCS

T2: human TGFβ2 (human, UniProt P61812 303-414)
T2 construct: also called TGFβ2 homodimer
T2 sequence: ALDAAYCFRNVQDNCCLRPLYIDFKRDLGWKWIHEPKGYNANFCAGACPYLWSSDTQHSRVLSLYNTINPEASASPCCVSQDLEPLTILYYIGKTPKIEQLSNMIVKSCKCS

B1: S31R (antibody, V domains shown)
VH: QVQLVQSGAEVKKPGSSVKVSCKASGYTFSRNVISWVRQAPGQGLEWMGGVIPIVDIANYAQRFKGRVTITADESTSTTYMELSSLRSEDTAVYYCASTLGLVLDAMDYWGQGTLVTVSS
VL: ETVLTQSPGTLSLSPGERATLSCRASQSLGSSYLAWYQQKPGQAPRLLIYGASSRAPGIPDRFSGSGSGTDFTLTISRLEPEDFAVYYCQQYADSPITFGQGTRLEIK
notes: GC1008 IgG4 variant
B2: S31T (antibody, V domains shown)
VH: B1 VH with R31T
VL: B1 VL
notes: GC1008 IgG4 variant
B3: Y27D (antibody, V domains shown)
VH: B1 VH with Y27D, R31S
VL: B1 VL
notes: GC1008 IgG4 variant
B4: S31V (antibody, V domains shown)
VH: B1 VH with R31V
VL: B1 VL
notes: GC1008 IgG4 variant
B5: Y27S (antibody, V domains shown)
VH: B1 VH with Y27S, R31S
VL: B1 VL
notes: GC1008 IgG4 variant
B6: Y27L (antibody, V domains shown)
VH: B1 VH with Y27L, R31S
VL: B1 VL
notes: GC1008 IgG4 variant
B7: Y27M (antibody, V domains shown)
VH: B1 VH with Y27M, R31S
VL: B1 VL
notes: GC1008 IgG4 variant
B8: Y27E (antibody, V domains shown)
VH: B1 VH with Y27E, R31S
VL: B1 VL
notes: GC1008 IgG4 variant
B9: Y27K (antibody, V domains shown)
VH: B1 VH with Y27K, R31S
VL: B1 VL
notes: GC1008 IgG4 variant
B10: Y27V (antibody, V domains shown)
VH: B1 VH with Y27V, R31S
VL: B1 VL
notes: GC1008 IgG4 variant
B11: Y27W (antibody, V domains shown)
VH: B1 VH with Y27W, R31S
VL: B1 VL
notes: GC1008 IgG4 variant
B12: Y27F (antibody, V domains shown)
VH: B1 VH with Y27F, R31S
VL: B1 VL
notes: GC1008 IgG4 variant
B13: Y27N (antibody, V domains shown)
VH: B1 VH with Y27N, R31S
VL: B1 VL
notes: GC1008 IgG4 variant
B14: Y27R (antibody, V domains shown)
VH: B1 VH with Y27R, R31S
VL: B1 VL
notes: GC1008 IgG4 variant
B15: Y27G (antibody, V domains shown)
VH: B1 VH with Y27G, R31S
VL: B1 VL
notes: GC1008 IgG4 variant
B16: Y27I (antibody, V domains shown)
VH: B1 VH with Y27I, R31S
VL: B1 VL
notes: GC1008 IgG4 variant
B17: Y27A (antibody, V domains shown)
VH: B1 VH with Y27A, R31S
VL: B1 VL
notes: GC1008 IgG4 variant
B18: V55G (antibody, V domains shown)
VH: B1 VH with R31S, V55G
VL: B1 VL
notes: GC1008 IgG4 variant
B19: Y27Q (antibody, V domains shown)
VH: B1 VH with Y27Q, R31S
VL: B1 VL
notes: GC1008 IgG4 variant
B20: Y27P (antibody, V domains shown)
VH: B1 VH with Y27P, R31S
VL: B1 VL
notes: GC1008 IgG4 variant
B21: Y27T (antibody, V domains shown)
VH: B1 VH with Y27T, R31S
VL: B1 VL
notes: GC1008 IgG4 variant

Residue numbers refer to the chain shown, from its start.

For one experiment, the target named is T1, human TGFβ3. Put plainly: Biacore off-rate vs wt GC1008, 50 nM. An outline of the steps:
(§1)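 Surface plasmon resonance on a Biacore 3000 measured how fast purified antibody variants dissociated from TGFβ isoforms immobilized at about 100 RU. Variants carried single heavy- or light-chain substitutions and were produced by transient Expi293F transfection with Protein A cleanup. Samples at 50 nM were tested in duplicate, and each variant kd was divided by the wild-type control kd to give fold change.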
On the technique in general: Surface plasmon resonance follows binding to a sensor surface in real time, without labels.
In turn, B1 came in with a kd var/kd wt of 1.5.

B2 returned a kd var/kd wt of 1.5.

In turn, B3 gave a kd var/kd wt of 1.2.

For the molecule B4, the kd var/kd wt stood at 1.4.

B5: the kd var/kd wt came to 1.6.

Consider B6, for which the kd var/kd wt was determined as 1.1.

B7 returned a kd var/kd wt of 1.3.

B8 returned a kd var/kd wt of 1.1.

As for B9, the kd var/kd wt is 1.3.

Regarding B10, the kd var/kd wt came out at 1.5.

B11 had a kd var/kd wt of 1.4.

B12 had a kd var/kd wt of 1.1.

For the molecule B13, the kd var/kd wt was determined as 1.3.

On to B14, for which the kd var/kd wt came out at 1.7.

As for B15, the kd var/kd wt was determined as 1.3.

For the molecule B16, the kd var/kd wt stood at 1.1.

B17 displayed a kd var/kd wt of 1.5.

As for B18, the kd var/kd wt turned out to be 1.9.

The molecule B19 yielded a kd var/kd wt of 1.4.

Turning to B20, the kd var/kd wt was 1.4.

In turn, B21 had a kd var/kd wt of 1.5.

The target in another experiment is T3, human TGFβ1 (human, UniProt P01137 279-390).
T3 construct: also called TGFβ1 homodimer
T3 sequence (P01137 279-390 limits assumed): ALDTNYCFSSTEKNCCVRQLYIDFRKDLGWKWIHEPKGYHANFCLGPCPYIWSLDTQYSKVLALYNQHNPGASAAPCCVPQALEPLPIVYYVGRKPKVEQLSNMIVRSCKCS
Put plainly: Biacore off-rate vs wt GC1008, 50 nM. A digest of the protocol:
as §1
B1 came in with a kd var/kd wt of 1.4.

B2: the kd var/kd wt is 1.6.

B3 returned a kd var/kd wt of 1.2.

In the case of B4, the kd var/kd wt came to 1.4.

Molecule B5 displayed a kd var/kd wt of 1.6.

Molecule B6 had a kd var/kd wt of 1.4.

Consider B7, for which the kd var/kd wt was determined as 1.3.

Take B8: the kd var/kd wt stood at 1.2.

B9 gave a kd var/kd wt of 1.9.

Molecule B10 returned a kd var/kd wt of 1.7.

As to B11, the kd var/kd wt was 1.4.

The molecule B12 returned a kd var/kd wt of 1.3.

Regarding B13, the kd var/kd wt stood at 1.3.

In turn, B14 showed a kd var/kd wt of 2.3.

B15 registered a kd var/kd wt of 1.5.

On to B16, for which the kd var/kd wt was 1.3.

Turning to B17, the kd var/kd wt is 1.6.

With B18, the kd var/kd wt amounted to 1.8.

With B19, the kd var/kd wt worked out at 1.5.

As for B20, the kd var/kd wt was 1.7.

The molecule B21 returned a kd var/kd wt of 1.4.

The target of a further experiment is T2, human TGFβ2. The experiment is described as follows: Biacore off-rate vs wt GC1008, 50 nM. An outline of the steps: as §1
B1 had a kd var/kd wt of 1.2.

Molecule B2 showed a kd var/kd wt of 1.2.

As for B3, the kd var/kd wt came out at 1.3.

B4: the kd var/kd wt came to 1.

As for B5, the kd var/kd wt stood at 1.5.

With B6, the kd var/kd wt came to 1.4.

Molecule B7 registered a kd var/kd wt of 1.4.

Molecule B8 yielded a kd var/kd wt of 1.4.

Regarding B9, the kd var/kd wt was 1.4.

On to B10, for which the kd var/kd wt was 1.6.

In turn, B11 showed a kd var/kd wt of 1.3.

The molecule B12 yielded a kd var/kd wt of 1.2.

B13 gave a kd var/kd wt of 1.3.

In the case of B14, the kd var/kd wt was 1.5.

Take B15: the kd var/kd wt was 1.4.

Turning to B16, the kd var/kd wt stood at 1.3.

B17 had a kd var/kd wt of 1.4.

In the case of B18, the kd var/kd wt is 1.9.

In turn, B19 had a kd var/kd wt of 1.4.

In turn, B20 showed a kd var/kd wt of 1.4.

For the molecule B21, the kd var/kd wt is 1.4.

Source of the values: patent US20170342144A1 (Sanofi, published 2017).
